Test results from US7749968B2, “Peptides for targeting the prostate specific membrane antigen” (The Johns Hopkins University, priority 2002, dated 2010).

Target: T1, Tag-xPSM (Homo sapiens, UniProt Q04609)
T1 construct: made in house; host or cells: Sf-9 insect cells infected with recombinant baculovirus; protein harvested from the media
Experiment: Stringent Tag-xPSM phage display, round 4 acid elution pool
Format: binding
Conditions: pH 2.2 pool
Procedure: As described above in Example 1, Tag-xPSM was used as a target for the in vitro selection of a commercially available cysteine-constrained heptapeptide phage library. For the initial round, 14 micrograms of S-protein-agarose immobilized Tag-xPSM was incubated with 2×10^11 PFU for 30 minutes at room temperature while rotating. Weakly bound phage were then washed off with three 5 minute rotating washes. One phage pool, referred to herein as the “pH 2.2 pool”, was eluted for ten minutes in pH 2.2 glycine buffer followed by neutralization in Tris buffer. Those phage still bound to Tag-xPSM were then eluted for one hour in 30 mM EDTA-Tris buffer. This pool is referred to herein as the “EDTA pool”. These two pools where then carried separately for the next three rounds. Stringency was increased in each round by changing Tag-xPSM substrate background, decreasing binding time, or increasing washing time (Table 3).
Twelve individual phage from each elution condition for rounds two, three, and four of Tag-xPSM phage display were isolated, amplified, and sequenced. All clones sequenced from rounds 2 and 3 were unique (Tables 4 and 5).

T1 sequence (Q04609 44-750 limits assumed): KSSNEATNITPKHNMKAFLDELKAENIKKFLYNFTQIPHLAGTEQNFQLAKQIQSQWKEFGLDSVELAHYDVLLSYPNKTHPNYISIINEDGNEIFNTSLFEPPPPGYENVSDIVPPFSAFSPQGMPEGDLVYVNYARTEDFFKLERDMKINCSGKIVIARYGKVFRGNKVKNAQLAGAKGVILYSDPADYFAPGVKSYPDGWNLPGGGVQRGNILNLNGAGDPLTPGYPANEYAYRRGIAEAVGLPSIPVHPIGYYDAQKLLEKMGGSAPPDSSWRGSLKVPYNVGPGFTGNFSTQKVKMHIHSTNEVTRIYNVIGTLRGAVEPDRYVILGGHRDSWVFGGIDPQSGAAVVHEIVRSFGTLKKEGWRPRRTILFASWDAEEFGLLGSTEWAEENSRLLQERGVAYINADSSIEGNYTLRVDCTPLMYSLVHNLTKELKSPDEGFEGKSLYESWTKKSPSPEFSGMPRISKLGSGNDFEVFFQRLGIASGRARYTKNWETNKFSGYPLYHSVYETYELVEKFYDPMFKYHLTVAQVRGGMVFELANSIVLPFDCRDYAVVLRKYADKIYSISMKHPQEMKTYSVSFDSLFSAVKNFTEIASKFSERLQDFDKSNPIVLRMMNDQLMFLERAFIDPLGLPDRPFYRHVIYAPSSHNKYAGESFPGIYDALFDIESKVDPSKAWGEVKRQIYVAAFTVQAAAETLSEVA

## CLNTAPLAC [SEQ ID NO:60]
  Share of the round 4 acid elution pool: 83%
